These are literature values, as cited in article PMC11379947 (Nature Communications, 2024).

A word on the Kd: it is the free concentration of one partner at which half of the binding sites on the other are occupied at equilibrium, for simple one-to-one binding.

The data set addresses T1, ICOS (Homo sapiens, UniProt Q9Y6W8).
T1 sequence (Q9Y6W8 21-199): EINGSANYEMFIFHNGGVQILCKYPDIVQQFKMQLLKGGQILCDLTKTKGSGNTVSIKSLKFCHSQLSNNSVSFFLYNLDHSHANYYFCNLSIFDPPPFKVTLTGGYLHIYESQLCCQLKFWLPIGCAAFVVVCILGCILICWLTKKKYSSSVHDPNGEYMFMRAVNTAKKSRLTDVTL
Particulars: read-out: KD of natural ICOS ligand; cited from earlier work.

B1: ICOSL: the natural ICOS ligand (protein, UniProt O75144 19-302, looked up)
ICOS ligand: DTQEKEVRAMVGSDVELSCACPEGSRFDLNDVYVYWQTSESKTVVTYHIPQNSSLENVDSRYRNRALMSPAGMLRGDFSLRLFNVTPQDEQKFHCLVLSQSLGFQEVLSVEVTLHVAANFSVPVVSAPHSPSQDELTFTCTSINGYPRPNVYWINKTDNSLLDQALQNDTVFLNMRGLYDVVSVLRIARTPSVNIGCCIENVLLQQNLTVGSQTGNDIGERDKITENPVSTGEKNAATWSILAVLCLLVVVAVAIGWVCRDRCLQHSYAGAWAVSPETELTGHV
B1: the dissociation constant (Kd) was 0.722 µM.
